Measured values: patent EP1803810A1

Columns and labels:
[1] = biological target: human integrin αvβ5 (human) (UniProt P06756); assay: flow cytometry on HMVEC-d; competitor mAb MAB 1961
[2] = biological target: human integrin α5β1 (human) (UniProt P08648); assay: flow cytometry on HMVEC-d; competitor mAb SAM-1
[3] = biological target: human integrin αvβ3 (human) (UniProt P06756); assay: flow cytometry on HMVEC-d; competitor mAb LM609
α6β1.α6β4 (human) = α6β1.α6β4 (human) (UniProt P23229); assay: flow cytometry on HMVEC-d; competitor α6 integrin mAb (GoH3 and/or 439-9B)
Chain of UniProt P23229 (P23229 24-1130): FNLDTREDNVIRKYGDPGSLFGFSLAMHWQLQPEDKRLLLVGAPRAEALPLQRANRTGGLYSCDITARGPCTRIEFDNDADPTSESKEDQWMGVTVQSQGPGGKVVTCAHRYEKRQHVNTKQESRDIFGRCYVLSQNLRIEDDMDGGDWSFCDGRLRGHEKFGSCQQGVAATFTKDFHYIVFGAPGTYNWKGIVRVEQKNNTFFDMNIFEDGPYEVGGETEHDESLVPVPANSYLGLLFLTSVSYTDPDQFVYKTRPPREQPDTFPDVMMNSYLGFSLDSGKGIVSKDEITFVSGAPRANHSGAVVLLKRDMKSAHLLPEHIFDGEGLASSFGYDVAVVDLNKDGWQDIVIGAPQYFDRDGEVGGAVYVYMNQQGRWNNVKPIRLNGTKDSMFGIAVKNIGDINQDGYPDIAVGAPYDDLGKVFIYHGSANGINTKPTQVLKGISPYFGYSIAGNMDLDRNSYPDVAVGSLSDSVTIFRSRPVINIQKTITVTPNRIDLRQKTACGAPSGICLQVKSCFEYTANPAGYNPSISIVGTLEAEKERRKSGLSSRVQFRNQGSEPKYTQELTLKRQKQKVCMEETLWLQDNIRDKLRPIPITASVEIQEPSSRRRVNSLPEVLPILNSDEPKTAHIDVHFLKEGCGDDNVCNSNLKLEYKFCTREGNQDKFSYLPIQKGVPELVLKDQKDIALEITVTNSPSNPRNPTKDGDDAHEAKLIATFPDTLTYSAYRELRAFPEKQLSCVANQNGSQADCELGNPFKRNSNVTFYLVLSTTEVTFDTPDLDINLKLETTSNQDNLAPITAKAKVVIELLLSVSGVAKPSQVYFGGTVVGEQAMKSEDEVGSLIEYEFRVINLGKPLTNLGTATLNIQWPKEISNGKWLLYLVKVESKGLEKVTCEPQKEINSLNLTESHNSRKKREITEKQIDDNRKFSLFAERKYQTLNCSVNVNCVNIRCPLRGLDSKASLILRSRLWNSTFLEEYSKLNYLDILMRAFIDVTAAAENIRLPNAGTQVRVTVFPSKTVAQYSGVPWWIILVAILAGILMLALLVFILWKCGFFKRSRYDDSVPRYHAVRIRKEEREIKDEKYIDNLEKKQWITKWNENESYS

[4] = biological target: human integrin α2β1 (human) (UniProt P17301); assay: flow cytometry on HMVEC-d; competitor mAb BHA2.1
Chain of UniProt P17301 (P17301 30-1181, chain 1 of 2): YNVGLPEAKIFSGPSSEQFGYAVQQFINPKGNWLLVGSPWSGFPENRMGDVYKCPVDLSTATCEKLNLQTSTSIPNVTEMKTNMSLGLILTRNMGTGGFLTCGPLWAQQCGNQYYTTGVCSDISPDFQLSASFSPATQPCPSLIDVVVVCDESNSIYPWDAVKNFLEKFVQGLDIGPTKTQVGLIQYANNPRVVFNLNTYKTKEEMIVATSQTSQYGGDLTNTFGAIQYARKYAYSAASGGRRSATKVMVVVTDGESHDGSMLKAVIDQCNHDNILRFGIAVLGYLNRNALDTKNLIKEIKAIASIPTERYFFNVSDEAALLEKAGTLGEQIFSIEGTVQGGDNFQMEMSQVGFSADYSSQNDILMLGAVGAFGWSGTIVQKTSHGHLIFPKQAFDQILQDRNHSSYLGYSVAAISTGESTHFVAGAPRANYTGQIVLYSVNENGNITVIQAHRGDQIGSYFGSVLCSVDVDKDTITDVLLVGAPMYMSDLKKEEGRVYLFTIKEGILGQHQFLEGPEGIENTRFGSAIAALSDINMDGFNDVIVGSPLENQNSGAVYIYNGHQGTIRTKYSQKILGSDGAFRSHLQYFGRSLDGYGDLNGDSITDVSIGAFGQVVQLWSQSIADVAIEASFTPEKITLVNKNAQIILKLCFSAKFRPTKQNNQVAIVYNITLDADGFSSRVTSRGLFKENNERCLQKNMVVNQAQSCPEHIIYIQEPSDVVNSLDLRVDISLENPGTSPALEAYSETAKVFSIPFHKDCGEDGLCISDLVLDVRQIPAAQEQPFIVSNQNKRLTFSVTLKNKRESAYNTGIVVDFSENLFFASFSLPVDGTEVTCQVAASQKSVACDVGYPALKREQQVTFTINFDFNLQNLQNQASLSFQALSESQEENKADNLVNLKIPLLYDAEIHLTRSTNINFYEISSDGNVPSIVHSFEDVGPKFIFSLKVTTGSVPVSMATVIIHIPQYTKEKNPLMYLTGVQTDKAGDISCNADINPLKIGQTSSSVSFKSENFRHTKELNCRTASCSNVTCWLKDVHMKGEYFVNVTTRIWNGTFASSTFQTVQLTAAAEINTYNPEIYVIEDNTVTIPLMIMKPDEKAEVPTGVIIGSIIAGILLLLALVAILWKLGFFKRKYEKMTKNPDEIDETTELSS
Chain of UniProt P17301 (P05556 21-798, chain 2 of 2, further chain): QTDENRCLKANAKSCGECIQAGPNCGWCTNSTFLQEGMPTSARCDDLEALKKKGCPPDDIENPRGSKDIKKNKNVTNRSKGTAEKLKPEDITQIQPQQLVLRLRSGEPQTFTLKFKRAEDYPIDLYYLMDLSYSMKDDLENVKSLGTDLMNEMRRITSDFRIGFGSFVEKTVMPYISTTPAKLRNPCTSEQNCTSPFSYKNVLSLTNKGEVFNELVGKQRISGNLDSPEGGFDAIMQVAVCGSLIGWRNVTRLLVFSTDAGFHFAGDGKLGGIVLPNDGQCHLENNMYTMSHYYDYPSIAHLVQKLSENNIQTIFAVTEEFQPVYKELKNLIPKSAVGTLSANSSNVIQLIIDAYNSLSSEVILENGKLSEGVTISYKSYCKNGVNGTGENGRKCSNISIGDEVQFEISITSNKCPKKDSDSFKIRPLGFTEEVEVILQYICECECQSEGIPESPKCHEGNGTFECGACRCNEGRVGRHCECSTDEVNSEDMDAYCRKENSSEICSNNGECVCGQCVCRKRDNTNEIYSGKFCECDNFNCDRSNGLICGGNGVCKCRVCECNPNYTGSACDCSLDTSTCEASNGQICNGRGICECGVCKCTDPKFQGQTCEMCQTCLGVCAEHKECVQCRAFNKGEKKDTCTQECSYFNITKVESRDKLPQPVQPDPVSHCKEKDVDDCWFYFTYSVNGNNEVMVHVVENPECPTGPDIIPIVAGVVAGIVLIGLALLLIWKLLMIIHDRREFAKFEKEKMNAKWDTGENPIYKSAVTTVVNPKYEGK

Chain of UniProt P08648 (P08648 42-1049, chain 1 of 2): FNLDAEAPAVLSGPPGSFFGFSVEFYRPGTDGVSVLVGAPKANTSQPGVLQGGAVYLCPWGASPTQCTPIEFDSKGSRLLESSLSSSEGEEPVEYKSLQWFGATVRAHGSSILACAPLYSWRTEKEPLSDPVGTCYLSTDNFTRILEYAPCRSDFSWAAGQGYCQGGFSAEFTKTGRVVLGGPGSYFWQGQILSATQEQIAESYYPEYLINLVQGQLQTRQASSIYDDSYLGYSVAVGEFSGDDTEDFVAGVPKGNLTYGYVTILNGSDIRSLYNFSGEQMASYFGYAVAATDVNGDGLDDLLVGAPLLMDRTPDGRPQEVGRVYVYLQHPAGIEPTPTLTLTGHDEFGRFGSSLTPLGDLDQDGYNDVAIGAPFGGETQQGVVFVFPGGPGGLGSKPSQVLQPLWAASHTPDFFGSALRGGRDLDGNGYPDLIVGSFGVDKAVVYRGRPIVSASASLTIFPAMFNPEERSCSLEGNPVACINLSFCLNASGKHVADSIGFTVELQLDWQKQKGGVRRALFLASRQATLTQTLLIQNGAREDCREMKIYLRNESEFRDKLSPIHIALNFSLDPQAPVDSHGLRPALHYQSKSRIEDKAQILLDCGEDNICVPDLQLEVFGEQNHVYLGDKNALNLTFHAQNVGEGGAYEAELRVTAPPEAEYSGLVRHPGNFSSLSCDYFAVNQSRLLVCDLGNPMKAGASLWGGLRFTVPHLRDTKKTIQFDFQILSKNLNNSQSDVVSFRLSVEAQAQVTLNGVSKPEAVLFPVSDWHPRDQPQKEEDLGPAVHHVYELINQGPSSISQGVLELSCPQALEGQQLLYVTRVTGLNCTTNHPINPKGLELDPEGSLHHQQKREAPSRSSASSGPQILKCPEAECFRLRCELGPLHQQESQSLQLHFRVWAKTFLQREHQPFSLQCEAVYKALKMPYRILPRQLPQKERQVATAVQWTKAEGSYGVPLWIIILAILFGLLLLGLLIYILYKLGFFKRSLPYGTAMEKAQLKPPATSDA
Chain of UniProt P08648 (P05556 21-798, chain 2 of 2, further chain): as the sequence (P05556 21-798, chain 2 of 2, further chain) above

Row | Substance | percent inhibition of binding by integrin mAb [1] | percent inhibition of binding by integrin mAb [2] | percent inhibition of binding by integrin mAb [3] | percent inhibition of binding by integrin mAb (α6β1.α6β4 (human)) | percent inhibition of binding by integrin mAb [4]
1 | ADAM-15dis-Fc (Fc fusion) | 25% | 30% | 60% | – | –
2 | ADAM-20dis-Fc (Fc fusion) | – | – | 58% | – | –
3 | ADAM-21dis-Fc (Fc fusion) | – | 54% | – | – | –
4 | ADAM-22dis-Fc (Fc fusion) | – | 36% | 42% | 32% | –
5 | ADAM-23dis-Fc (Fc fusion) | – | 49% | – | 31% | 22%
